From article PMC10028609
One block for each substance: values may come before it.

What was measured:
[1] = molecular target: His6-MBP-OspR fusion (Kamptonema sp. (formerly Oscillatoria) PCC 6506)
[2] = molecular target: OspR, untagged (peptide arginase from Kamptonema sp. PCC 6506) (Kamptonema sp. (formerly Oscillatoria) PCC 6506); assay: SEC; analytical size exclusion chromatography of OspR in solution (Figure S18); conditions in the SI
[3] = molecular target: His6-MBP-OspR fusion (Kamptonema sp. (formerly Oscillatoria) PCC 6506); remark: listed apart in the source

KM of OspR toward unmodified OspA, Michaelis–Menten kinetics by urea detection assay (50 mM TRIS-HCl pH 8.5, 1 mM MnCl2, 25 °C) [1]: 9.01 μM
Substance: His6-OspA precursor protein, unmodified (natural protein)

stoichiometry N [2]: 2
Substance: OspR, untagged (peptide arginase from Kamptonema sp. PCC 6506) (enzyme)

KM of OspR toward cyclized-and-epimerized OspA^MD, Michaelis–Menten kinetics by urea detection assay (50 mM TRIS-HCl pH 8.5, 1 mM MnCl2, 25 °C) [3]: 6.33 μM
Substance: His6-OspA^MD, fully cyclized-and-epimerized OspA precursor protein (natural protein)
